Earlier results in article PMC6002756.
pKd: −log10 of the molar value.

Key:
[1] = target: E-cadherin ECD (UniProt P12830)
[2] = target: E-cadherin (X-dimer) ECD (UniProt P12830)

pKd [1] | pKd [2] | Substance
4.00 | – | E-cadherin ECD (from UniProt P12830)
– | 3.05 | E-cadherin (X-dimer) ECD (from UniProt P12830)
